From patent US20120128584A1 (ONCOTHERAPY SCIENCE, published 2012) come the findings set out here.

The assay concerns the target T1, placental cadherin (P-cadherin; CDH3) (human, UniProt P22223 108-829).
T1 construct: Native CDH3 on the surface of the cancer cell lines H358 and KLM-1; also called native CDH3 protein; CDH3 antigen
Briefly: hybridoma screening on cancer cells carrying native CDH3. The text has this:
CDH3 gene encoded extracellular domain (SEQ ID NO: 3) was amplified from cDNA pool derived from cancer cells. The product was cloned into the pcDNA3.1 (Invitrogen, CA). To produce CDH3-specific antibody, mice were immunized subcutaneously with the domain expression vector (17.5 mcg/injection) every two weeks for a month. After the confirmation of the titer of antisera, spleenocytes were extracted from the mice and fused to myeloma cells to prepare hybridomas. We screened the hybridomas which can recognize native CDH3 antigen on the surface of the cancer cells. […] The hybridoma clone #6 was used to inject intraperitoneally into mice. The ascites was recovered after 2 to 3 weeks. Finally antibody was purified from the ascites using Protein A column (GE Healthcare, NJ).

T1 sequence (P22223 108-829 limits assumed): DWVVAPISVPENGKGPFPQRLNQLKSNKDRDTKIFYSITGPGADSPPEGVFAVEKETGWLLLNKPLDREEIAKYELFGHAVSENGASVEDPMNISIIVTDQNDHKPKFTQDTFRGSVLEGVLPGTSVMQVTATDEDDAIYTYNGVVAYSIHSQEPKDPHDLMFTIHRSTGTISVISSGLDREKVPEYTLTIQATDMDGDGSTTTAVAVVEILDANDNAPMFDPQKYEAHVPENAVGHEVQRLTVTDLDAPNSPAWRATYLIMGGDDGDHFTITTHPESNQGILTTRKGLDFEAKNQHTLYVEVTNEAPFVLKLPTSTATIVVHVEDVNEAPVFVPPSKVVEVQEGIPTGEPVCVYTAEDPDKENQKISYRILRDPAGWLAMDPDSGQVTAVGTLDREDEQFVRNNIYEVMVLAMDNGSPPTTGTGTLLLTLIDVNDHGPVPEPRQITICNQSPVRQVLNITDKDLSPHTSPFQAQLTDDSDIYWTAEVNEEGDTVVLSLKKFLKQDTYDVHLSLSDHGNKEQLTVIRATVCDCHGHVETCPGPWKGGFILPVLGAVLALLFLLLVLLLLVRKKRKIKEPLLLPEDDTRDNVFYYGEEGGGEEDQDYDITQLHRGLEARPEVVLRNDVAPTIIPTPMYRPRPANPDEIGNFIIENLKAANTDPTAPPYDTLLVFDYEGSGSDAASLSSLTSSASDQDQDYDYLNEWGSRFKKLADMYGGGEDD

B1: Anti-CDH3 mouse monoclonal antibody produced by hybridoma clone #6 (antibody, V domains shown)
VH: QVQLQQPGAELVKPGTSVKLSCKSSGYTFTSYWIHWVKQRPGHGLEWIGEIDPSDNYTYYNQNFKGKATLTIDKSSSTAYMQLNSLTSEDSAVFYCARSGYGNLFVYWGQGTLVTVSA
VL: QIVLTQSPAIMSSSPGEKVTMSCSATSSVTYMYWYQQKPGSSPKPWIFRTSNLASGVPTRFSGSGSGTSYSLTISSMEAEDAATYYCQHYHIYPRTFGGGTKL
notes: The VL as printed ends at 'TKL'
For B1, the binding result was “binds”.
